T1: PAN (Methanocaldococcus jannaschii, UniProt Q58576)
T1 construct: recombinant from pRSETA, homohexamer
T1 sequence (Q58576 1-430): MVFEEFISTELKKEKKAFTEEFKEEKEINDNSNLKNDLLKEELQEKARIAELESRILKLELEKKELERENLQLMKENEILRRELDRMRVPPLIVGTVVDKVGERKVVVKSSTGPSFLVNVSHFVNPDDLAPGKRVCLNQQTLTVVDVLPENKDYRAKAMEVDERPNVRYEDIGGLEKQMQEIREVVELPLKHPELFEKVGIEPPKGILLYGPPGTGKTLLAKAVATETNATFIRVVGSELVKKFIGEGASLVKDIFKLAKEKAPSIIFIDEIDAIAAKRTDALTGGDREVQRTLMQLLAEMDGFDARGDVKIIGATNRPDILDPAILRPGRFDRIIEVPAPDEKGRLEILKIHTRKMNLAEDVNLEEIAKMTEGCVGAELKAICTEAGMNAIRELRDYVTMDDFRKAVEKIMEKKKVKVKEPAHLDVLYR


Key:
PAN = target: T1, PAN; experiment: NADH-coupled ATPase assay, Hill equation; assay type: biochemical; conditions: 50 mM Tris-HCl pH 7.5, 5 mM MgCl2; 100 nM PAN
Source text: NADH-coupled ATPase assay, Hill equation on PAN | Vmax, KM and Hill coefficient (h) values were obtained by nonlinear regression analysis

archaeal 20S proteasome = archaeal 20S proteasome (UniProt P25156)
[1] = target: the molecule itself; experiment: native gel or EMSA; native gel of the PAN mutants; conditions not given

Chain of archaeal 20S proteasome (P25156 whole entry, chain 1 of 2): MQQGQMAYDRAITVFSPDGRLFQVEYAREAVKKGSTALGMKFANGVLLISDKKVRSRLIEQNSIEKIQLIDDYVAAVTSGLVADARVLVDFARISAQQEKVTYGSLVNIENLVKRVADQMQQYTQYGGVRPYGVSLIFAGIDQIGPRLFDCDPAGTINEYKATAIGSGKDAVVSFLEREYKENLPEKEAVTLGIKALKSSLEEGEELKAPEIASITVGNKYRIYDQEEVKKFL
Chain of archaeal 20S proteasome (chain, as listed by the source, chain 2 of 2): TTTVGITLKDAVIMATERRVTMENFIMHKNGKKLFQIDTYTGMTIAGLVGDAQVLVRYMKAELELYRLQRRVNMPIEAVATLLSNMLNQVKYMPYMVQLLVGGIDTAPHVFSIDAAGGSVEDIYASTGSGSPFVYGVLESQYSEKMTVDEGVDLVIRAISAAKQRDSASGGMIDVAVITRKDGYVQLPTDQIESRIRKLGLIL

Molecule | stoichiometry N [1] | also measured
Nc1ncnc2c1ncn2[C@@H]1O[C@H](COP(=O)(O)OP(=O)(O)OP(=O)(O)O)[C@@H](O)[C@H]1O [ATP] | – | Km (PAN): 261 ± 8 µM
PAN wild type (enzyme) MVFEEFISTELKKEKKAFTEEFKEEKEINDNSNLKNDLLKEELQEKARIAELESRILKLELEKKELERENLQLMKENEILRRELDRMRVPPLIVGTVVDKVGERKVVVKSSTGPSFLVNVSHFVNPDDLAPGKRVCLNQQTLTVVDVLPENKDYRAKAMEVDERPNVRYEDIGGLEKQMQEIREVVELPLKHPELFEKVGIEPPKGILLYGPPGTGKTLLAKAVATETNATFIRVVGSELVKKFIGEGASLVKDIFKLAKEKAPSIIFIDEIDAIAAKRTDALTGGDREVQRTLMQLLAEMDGFDARGDVKIIGATNRPDILDPAILRPGRFDRIIEVPAPDEKGRLEILKIHTRKMNLAEDVNLEEIAKMTEGCVGAELKAICTEAGMNAIRELRDYVTMDDFRKAVEKIMEKKKVKVKEPAHLDVLYR | – | LFP peptide hydrolysis by the 20S (20 nM) with PAN (80 nM) and 10 μM ATPγS (gate opening) (archaeal 20S proteasome): 9 fold
PAN-R328A (enzyme, UniProt Q58576 1-430, looked up, PAN, archaeal proteasomal ATPase; Vector pRSETA; source: expression vector in pRSETA made by site-directed mutagenesis) MVFEEFISTELKKEKKAFTEEFKEEKEINDNSNLKNDLLKEELQEKARIAELESRILKLELEKKELERENLQLMKENEILRRELDRMRVPPLIVGTVVDKVGERKVVVKSSTGPSFLVNVSHFVNPDDLAPGKRVCLNQQTLTVVDVLPENKDYRAKAMEVDERPNVRYEDIGGLEKQMQEIREVVELPLKHPELFEKVGIEPPKGILLYGPPGTGKTLLAKAVATETNATFIRVVGSELVKKFIGEGASLVKDIFKLAKEKAPSIIFIDEIDAIAAKRTDALTGGDREVQRTLMQLLAEMDGFDARGDVKIIGATNRPDILDPAILAPGRFDRIIEVPAPDEKGRLEILKIHTRKMNLAEDVNLEEIAKMTEGCVGAELKAICTEAGMNAIRELRDYVTMDDFRKAVEKIMEKKKVKVKEPAHLDVLYR | 6 | –
PAN-R331A (enzyme, UniProt Q58576 1-430, looked up, PAN, archaeal proteasomal ATPase; Vector pRSETA; source: expression vector in pRSETA made by site-directed mutagenesis) MVFEEFISTELKKEKKAFTEEFKEEKEINDNSNLKNDLLKEELQEKARIAELESRILKLELEKKELERENLQLMKENEILRRELDRMRVPPLIVGTVVDKVGERKVVVKSSTGPSFLVNVSHFVNPDDLAPGKRVCLNQQTLTVVDVLPENKDYRAKAMEVDERPNVRYEDIGGLEKQMQEIREVVELPLKHPELFEKVGIEPPKGILLYGPPGTGKTLLAKAVATETNATFIRVVGSELVKKFIGEGASLVKDIFKLAKEKAPSIIFIDEIDAIAAKRTDALTGGDREVQRTLMQLLAEMDGFDARGDVKIIGATNRPDILDPAILRPGAFDRIIEVPAPDEKGRLEILKIHTRKMNLAEDVNLEEIAKMTEGCVGAELKAICTEAGMNAIRELRDYVTMDDFRKAVEKIMEKKKVKVKEPAHLDVLYR | 6 | –
PAN-R328/331A (enzyme, UniProt Q58576 1-430, looked up, PAN, archaeal proteasomal ATPase; Vector pRSETA; also called double mutant; double-arginine mutant; source: expression vector in pRSETA made by site-directed mutagenesis) MVFEEFISTELKKEKKAFTEEFKEEKEINDNSNLKNDLLKEELQEKARIAELESRILKLELEKKELERENLQLMKENEILRRELDRMRVPPLIVGTVVDKVGERKVVVKSSTGPSFLVNVSHFVNPDDLAPGKRVCLNQQTLTVVDVLPENKDYRAKAMEVDERPNVRYEDIGGLEKQMQEIREVVELPLKHPELFEKVGIEPPKGILLYGPPGTGKTLLAKAVATETNATFIRVVGSELVKKFIGEGASLVKDIFKLAKEKAPSIIFIDEIDAIAAKRTDALTGGDREVQRTLMQLLAEMDGFDARGDVKIIGATNRPDILDPAILAPGAFDRIIEVPAPDEKGRLEILKIHTRKMNLAEDVNLEEIAKMTEGCVGAELKAICTEAGMNAIRELRDYVTMDDFRKAVEKIMEKKKVKVKEPAHLDVLYR | 6 | –

From paper PMC4608255, “ATP binding to neighbouring subunits and intersubunit allosteric coupling underlie proteasomal ATPase function” (Nature Communications, 2015)
